The values that follow come from patent US20190359687A1 (Bayer, published 2019).

For assay [1], the target named is T1, Cynomolgus monkey glycophorin A on Cynomolgus monkey red blood cells (Cynomolgus monkey).
T1 construct: whole, on cells; also called Cyno GPA; Cyno RBC
The experiment in a line: partition to Cyno RBC, human HemA plasma, 1 min.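 Further: FVIII fusion spiked at 1 IU/mL into RBC suspension at whole-blood density.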
Description: To evaluate partition to cynomolgus monkey or human red blood cells, whole blood was draw from Cynomolgus monkey or normal human volunteers in to anticoagulant with 4% sodium citrate (Sigma, St Louis, Mo.). The red blood cells were purified by layering the whole blood on to ficoll followed by low speed centrifugation. The supernatant containing plasma, platelets and white blood cells was discarded and the red blood cell pellet was resuspended in 10 pellet volumes of PBS (50 mM Phosphate buffer, pH7.4, 150 mM NaCl). The red blood cells were then pelleted by slow speed centrifugation and the red blood cells re-suspended in 10 volumes of PBS. This washing step was repeated 4 more times and the red blood cells finally resuspended in a volume of plasma from Hemophilia patients with less than 1% of normal levels of FVIII (GeorgeKing Bio-Medical, Overland Park, Kans.) to generate a total volume equal to the initial blood volume such that the RBC density was equal to that of normal whole blood. BDD and RBC targeted FVIII molecules were then spiked into RBC suspension in HemA plasma at 1 IU/mL, and incubated at room temperature for 2-3 hours with gentle rotation. […] An additional control was performed in which BDD or RBC targeted FVIII molecules were added at 11U/ml into the same human hemophilia A plasma and incubated for 5 minutes and 180 mins. These samples were used to determine the input FVIII activity in the presence of plasma which was used to calculate the percentage of the molecule that was bound to RBC. All plasma samples were then assayed together for FVIII activity using the Coatest SP assay (DiaPharma, Columbus, Ohio). The assay was performed following the manufacturer's instructions in a 96-well plate format. […] The plate was incubated at 37° C. for 10 minutes with shaking between each reagent addition.

In assay [2] the target is T1, Cynomolgus monkey glycophorin A on …. Put plainly: partition to Cyno RBC, human HemA plasma, 5 min.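 Further: FVIII fusion spiked at 1 IU/mL into RBC suspension at whole-blood density.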
Assay [3] addresses T2, human glycophorin A on human red blood cells (human, UniProt P02724 20-150).
T2 construct: whole, on cells; also called human GPA; huGPA
T2 sequence (looked up): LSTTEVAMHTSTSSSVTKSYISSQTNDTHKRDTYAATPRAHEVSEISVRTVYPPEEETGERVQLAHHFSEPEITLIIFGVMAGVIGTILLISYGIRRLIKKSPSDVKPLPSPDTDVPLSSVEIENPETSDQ
Put plainly: partition to human RBC, human HemA plasma, 1 min.

Assay [4] concerns the target T2, human glycophorin A on human red blood …. The experiment in a line: partition to human RBC, human HemA plasma, 5 min.
Description: (§1) The supernatant containing plasma, platelets and white blood cells was discarded and the red blood cell pellet was resuspended in 10 pellet volumes of PBS (50 mM Phosphate buffer, pH7.4, 150 mM NaCl). The red blood cells were then pelleted by slow speed centrifugation and the red blood cells re-suspended in 10 volumes of PBS. This washing step was repeated 4 more times and the red blood cells finally resuspended in a volume of plasma from Hemophilia patients with less than 1% of normal levels of FVIII (GeorgeKing Bio-Medical, Overland Park, Kans.) to generate a total volume equal to the initial blood volume such that the RBC density was equal to that of normal whole blood. BDD and RBC targeted FVIII molecules were then spiked into RBC suspension in HemA plasma at 1 IU/mL, and incubated at room temperature for 2-3 hours with gentle rotation. […] An additional control was performed in which BDD or RBC targeted FVIII molecules were added at 11U/ml into the same human hemophilia A plasma and incubated for 5 minutes and 180 mins. These samples were used to determine the input FVIII activity in the presence of plasma which was used to calculate the percentage of the molecule that was bound to RBC. All plasma samples were then assayed together for FVIII activity using the Coatest SP assay (DiaPharma, Columbus, Ohio). The assay was performed following the manufacturer's instructions in a 96-well plate format. […] The plate was incubated at 37° C. for 10 minutes with shaking between each reagent addition. […] The amount of FVIII activity in the plasma reflects the amount of unbound FVIII. The FVIII activity of the same molecule spiked in to Hemophilia A plasma alone (no RBC) and incubated for 5 minutes was normalized to 100%.
Assay [5] has as its target T1, Cynomolgus monkey glycophorin A on …. Put plainly: partition to Cyno RBC, human HemA plasma, 15 min.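 Further: FVIII fusion spiked at 1 IU/mL into RBC suspension at whole-blood density.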
Assay [6] has the same target. Put plainly: partition to Cyno RBC, human HemA plasma, 30 min.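 Further: FVIII fusion spiked at 1 IU/mL into RBC suspension at whole-blood density.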
Assay [7] shares this target. Put plainly: partition to Cyno RBC, human HemA plasma, 60 min.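 Further: FVIII fusion spiked at 1 IU/mL into RBC suspension at whole-blood density.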
The target of assay [8] is T2, human glycophorin A on human red blood …. Put plainly: partition to human RBC, human HemA plasma, 15 min.
Description: as §1
Assay [9] shares this target. The experiment in a line: partition to human RBC, human HemA plasma, 30 min.
Description: as §1
The target is the same in assay [10]. The experiment in a line: partition to human RBC, human HemA plasma, 60 min.
Description: as §1
Assay [11] has as its target T1, Cynomolgus monkey glycophorin A on …. Put plainly: partition to Cyno RBC, human HemA plasma, 120 min.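 Further: FVIII fusion spiked at 1 IU/mL into RBC suspension at whole-blood density.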
For assay [12], the target named is T2, human glycophorin A on human red blood …. Put plainly: partition to human RBC, human HemA plasma, 120 min.
For assay [13] the target is unchanged. Put plainly: partition to human RBC, human HemA plasma, 120 min. The source holds these as a separate data set.
Assay [14] shares this target. Put plainly: partition to human RBC, vWF deficient plasma, 1 min.
The target is the same in assay [15]. The experiment in a line: partition to human RBC, vWF deficient plasma, 5 min.
Assay [16] has the same target. Put plainly: partition to human RBC, vWF deficient plasma, 15 min.
Assay [17] shares this target. Put plainly: partition to human RBC, vWF deficient plasma, 30 min.
Assay [18] has the same target. The experiment in a line: partition to human RBC, vWF deficient plasma, 60 min.
The target is the same in assay [19]. The experiment in a line: partition to human RBC, vWF deficient plasma, 120 min.

B1: TPP-9901 FVIII-scFv fusion protein (other)
chain: ATRRYYLGAVELSWDYMQSDLGELPVDARFPPRVPKSFPFNTSVVYKKTLFVEFTDHLFNIAKPRPPWMGLLGPTIQAEVYDTVVITLKNMASHPVSLHAVGVSYWKASEGAEYDDQTSQREKEDDKVFPGGSHTYVWQVLKENGPMASDPLCLTYSYLSHVDLVKDLNSGLIGALLVCREGSLAKEKTQTLHKFILLFAVFDEGKSWHSETKNSLMQDRDAASARAWPKMHTVNGYVNRSLPGLIGCHRKSVYWHVIGMGTTPEVHSIFLEGHTFLVRNHRQASLEISPITFLTAQTLLMDLGQFLLFCHISSHQHDGMEAYVKVDSCPEEPQLRMKNNEEAEDYDDDLTDSEMDVVRFDDDNSPSFIQIRSVAKKHPKTWVHYIAAEEEDWDYAPLVLAPDDRSYKSQYLNNGPQRIGRKYKKVRFMAYTDETFKTREAIQHESGILGPLLYGEVGDTLLIIFKNQASRPYNIYPHGITDVRPLYSRRLPKGVKHLKDFPILPGEIFKYKWTVTVEDGPTKSDPRCLTRYYSSFVNMERDLASGLIGPLLICYKESVDQRGNQIMSDKRNVILFSVFDENRSWYLTENIQRFLPNPAGVQLEDPEFQASNIMHSINGYVFDSLQLSVCLHEVAYWYILSIGAQTDFLSVFFSGYTFKHKMVYEDTLTLFPFSGETVFMSMENPGLWILGCHNSDFRNRGMTALLKVSSCDKNTGDYYEDSYEDISAYLLSKNNAIEPRSFSQNGGGGSTGGTGGSSGGGTGSGGGGTGGSGGTDIQLTQSPSFLSASVGDRVTITCRASSSVRYIYWFQQKPGKAPKLLIYATSFRQSGVPSRFSGSGSGTEYTLTISSLQPEDFATYYCHQRNSFPYTFGQGTKLEIKGGGGSGGGGSGGGGSGGGGSEVQLVQSGAEVKKPGASVKVSCKASGYTFTTYAIHWVRQAPGQGLEWMGYINPSSGYTRYNPKFKGRVTMTRDKSTSTAYMELRSLRSDDTAVYYCWTGTRDYWGQGTTVTVSSGGGGDENQSPRSFQKKTRHYFIAAVERLWDYGMSSSPHVLRNRAQSGSVPQFKKVVFQEFTDGSFTQPLYRGELNEHLGLLGPYIRAEVEDNIMVTFRNQASRPYSFYSSLISYEEDQRQGAEPRKNFVKPNETKTYFWKVQHHMAPTKDEFDCKAWAYFSDVDLEKDVHSGLIGPLLVCHTNTLNPAHGRQVTVQEFALFFTIFDETKSWYFTENMERNCRAPCNIQMEDPTFKENYRFHAINGYIMDTLPGLVMAQDQRIRWYLLSMGSNENIHSIHFSGHVFTVRKKEEYKMALYNLYPGVFETVEMLPSKAGIWRVECLIGEHLHAGMSTLFLVYSNKCQTPLGMASGHIRDFQITASGQYGQWAPKLARLHYSGSINAWSTKEPFSWIKVDLLAPMIIHGIKTQGARQKFSSLYISQFIIMYSLDGKKWQTYRGNSTGTLMVFFGNVDSSGIKHNIFNPPIIARYIRLHPTHYSIRSTLRMELMGCDLNSCSMPLGMESKAISDAQITASSYFTNMFATWSPSKARLHLQGRSNAWRPQVNNPKEWLQVDFQKTMKVTGVTTQGVKSLLTSMYVKEFLISSSQDGHQWTLFFQNGKVKVFQGNQDSFTPVVNSLDPPLLTRYLRIHPQSWVHQIALRMEVLGCEAQDLYGGGSGGGGSGLVPRGSGGGSGGGGSGDIQLTQSPSFLSASVGDRVTITCRASSSVRYIYWFQQKPGKAPKLLIYATSFRQSGVPSRFSGSGSGTEYTLTISSLQPEDFATYYCHQRNSFPYTFGQGTKLEIKGGGGSGGGGSGGGGSGGGGSEVQLVQSGAEVKKPGASVKVSCKASGYTFTTYAIHWVRQAPGQGLEWMGYINPSSGYTRYNPKFKGRVTMTRDKSTSTAYMELRSLRSDDTAVYYCWTGTRDYWGQGTTVTVSS
notes: also called PPB 7855
On to B1, for which the “% bound to Cyno RBC” value in assay [1] stood at 26.4%; in assay [2], 46%; in assay [5], 54%; in assay [6], 58%; in assay [7] it was 68%; in assay [11], 71%. In addition, the “percentage bound to human RBC” value in assay [3] was 31.4%; in [4], 53.8%; in assay [8], 71.5%; in assay [9] it was 78.9%; in [10] it was 84.1%; in assay [12], 86.7%. Also, the “percentage bound to human RBC” value is 86.7% in assay [13]; 26% in assay [14]; 44.9% in assay [15]; 53.8% in [16]; 57.3% in assay [17]; 64.3% in assay [18]. Also, in [19], the “percentage bound to human RBC” value stood at 72.7%.
